Assay results taken from a protein production outcome set (Wang et al. 2014).

Experiment: label from the status in PepcDB records
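Note: failed if final PepcDB status was selected cloned or expressed and not failed if soluble or beyond.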

Row | Sequence | protein production
1 | KEYNIVITGVGGQGILTAANILGWAALRAGYKVRVGEIHGMSQRFGSVIAYVRFGEEVYGAMVPEGKADVILSFEPVEALRYINYLKKGGLVFTNARPIPPVQVSMGIARYPSLEEIKRIVEEDFGGRFLAFDAEKLAIEAGHVVTTNVVLIGALTQTPGFPLSEDHVRDVIKLNVPPKAVEINMRAFDLGVKT | failed
2 | MLLGVIPVLAILLLGFNIHLLVKERRYKKSWISFSMLGLNGLLFVAFTFFLLVYMAGFVTITTIPPFVYWFLIMLGFIIEGMSLYKKYVPGQMTAAAIHLFVVLPTIFSIGIVLLLVAIIELIVAMMNGTGGHPVPRNKQTTTP | failed
3 | MFNKLVFKNLKLKKLSTSLVVVASLLVAQAPFANYAEAAGAEKVEKKKKRPTQLVGPRVGKKVQKAFEAYSADDIKGALVILLDIEASKPYDKAYVSRMVAVMYATLGDNDQKTIEYLKKALEPDILNEVDQSESLKLLGDMQMQTKDYKGALKSFYAWMDFSGKDDGPTYVKIANAYYSLKQLDKVIEPADKAIAAFGDKPNQNPYILKITSYYERKMYKEAVKVLETVIQVFPENKQWWTQLPMFYLLIEDYDKAVQTLDLAYKLGHLDKESQIKTLASLYSQTEAPYKAAQLLEKYIASGLVKRDDKNISTLANAWHSAQHIDKAASYYGELAKMTSDAKHYRKQGMLLKQDEQFSKAIVALNKAIELGVSNQGRIHMSIAESYFYLEKYKKAYAAIQKAMKDPSARKSAKGWKSFIVDTARRKNVTI | failed
4 | MELVHGISTHFIQSKKFKTNKITVRFTAPLSLDTIAGHMLSASMLETANQMYPTSQDLRRHLASLYGTDMSTNCFRRGQSHIIELTFTYVRDEFLSRKNVLTSQILELVKETLFSPVVVDNGFDPALFEIEKKQ | failed
5 | MAQTEKLTDYVNPFVGTDGYGNVYPGAQIPFGGIQISPDTDSRFYDAASGYKYNHLTLMGFSLTHLSGTGIPDLGDFLFIPGTGEMKLEPGTHEDPDQGYRSRYSHDKEWASPNYYAVELADYGVKAEMTSGVRSGMFRFTYPESDNAFIMIDMNHTLWQSCEWSNLRMINDSTITGYKLVKGWGPERHVYFTLEHHHHHH | failed
6 | MTQLFPGPIVRTPGLAELDARARDIFRRVVESYLETGEPVGSRTISKGGVALSPASIRNTMQDLAQLGLLDAPHTSAGRMPTHAGLRMFVDGFLEVGDVAEQEKRAIEARLAVKGRSFEEALAEASSILSGLAGGAGIVVTPVREGGVKHVEFVPLGGGQVLAVMVFEDGQVENRLMRQAPGVTPSALQEASNFLNARLRGRTLTEARTEMGGELDAARRQLNETAARLVEDGLAAWSGGEGDARSLIVRGQANLLADARAREDIDRVRQLFDDLSRRAQLIGLLDDVRDAEGVRIYIGAETRLFSLSGSSVIAAPYMTGRQKVLGAIGVIGPARLNYARVIPLVDYTARVLGRMMDG | failed
7 | MNAIPRVALVWLLVAQVLVILPHLAYMPLWIAAMWLGCAAWRVQVFRMRAGYPRAWVKLALALLAGAGVWLSRGSLVGLDAGAVLLIAAFILKLVEMKTRRDALVLVFLGFFAVVVGYLFDDGFLAALYSLLPVTALLAALIGLQQSAFASRPWPTLRLAGGLLLQALPLMLLLFLFFPRLGPLWSLPMPGNKGVTGLSESMAPGDIAELGRSAELAFRVRFEGALPPREQLYWRALTMERFDGRRWAQAPQWSGEDALHWQKRGPELRYDVIMQPSSQPWLFALDVAQTDQTDTRLMSDFHLQRRQPVEQRLFYRVSSWPQALRESSIDPRTRWRNLQLPMHGNPRARALADELRQAHAQPQALVAALLQRFNHEPFAYTLKPPATGADGVDDFLFDTRSGFCAHYAGAMAFVLRAAGIPARVVAGYQGGELNPAGNYLLVHQFDAHAWVEYWQPEQGWLSVDPTYQVAPERIEQGLEQALAGDSEYLADAPLSPLRYRGLPWLNDMRLAWDSLNYGWQRWVLAYQGEQQGAFLQRWFGGLDPTRLGLLLGAAAILSVGLLALFLLKPWQGRGDLRSRQLRRFERLLEMHGLRRSPGEGLRSYGERAARVLPAQAPAIAAFVGAFEAQRYGHGGADDPGLRLRALRRALPWRLVRTPTRDGRGEEQA | failed
8 | MSTAVASAPRSGQVLADLLPASRVRDAALVLGGAALTGLAAQISLPVPGSPVPVTGQTFAALLVGTALGAGRGFLSLAVYALVGMAGVPWFAGGGSGAAAPSFGYILGMLLAATVVGALARRGADRSVLRTAGAMLLGEAIIYAIGVPYLAFATGMSLTAAIAAGLTPFLIGDALKAALAMGVLPTAWKFLNR | failed
9 | MYLPTHFKQENQAELFDLIEHHPLGTLIVMHADGLEVNHIPFELDRLHLPAGILRGHIAKANPLASLLSEPQSAYVIFQAEQHYISPNWYPGKQEHHRVVPTWNYRVVHATGQLSVIEDQKYLRGVLARLTRQHEADQPAPWRLSDAPADFIEQQLEKIMAIEFNIESIIGKFKLSQNRSQADVAGVIAALNELEPQIANSIHKFYPK | failed
10 | MKMTVVGFWGGFPEAGEATSGYLFEHDGFRLLVDCGSGVLAQLQKYITPSDIDAVVLSHYHHDHVADIGVLQYARLITSATKGQLPELPIYGHTFDENGFHSLTHEPHTKGIPYNPEETLQIGPFSISFLKTVHPVTCFAMRITAGNDIVVYSADSSYIPEFIPFTKDADLFICECNMYAHQEAAKAGHMNSTEVASIAKDANVKELLLTHLPHTGNPADLVTEAKQIFSGHITLAHSGYVWNS | not failed
11 | MIDSIRVEGFRGLKELELSSLRRINVIVGRNNSGKSTLLEALSLFLGSSDPGTFGNVLHEILIWRGWYGIQTVDDLFYNGGDSFSISSTGKTLEALNSKHSLEFKLNGEPFYKIDRESIRRLASQAVLLARFSPKENFEFLTPLTFRRFGYAESLYSYAYERKVVKDSIKVLNEAYPEVEGFSPLLKEDNWVLYVETKYGVYPYYLMGEGFKSAMIISFLSSLLRDGVLLIDSAEAFHHPKSLKVMIQTLVRGSEKNNVQVFLTTHSLELLDLMLEMGRDGFVIYMKNVEGRIEVESIEFQRASELRESIGVDLRGFLEHHHHHH | not failed
12 | MGGIIIIDVHCHLDFKDFNRNREEVIERARSKLRAVIDSGVGLGGNRRALELASLNPGFICPTMGFHPVDASKARQDLIGEVVSQIESNIDLIVAVGETGMDFHHTRDEEGRRRQEETFRVFVELAAEHEMPLVVHARDAEERALETVLEYRVPEVIFHCYGGSIETARRILDEGYYISISTLVAFSEHHMELVRAIPLEGMLTETDSPYLSPFRGKRNEPAFVEEAVRAIARIKDMDLEDVDSITTANAERVFGL | failed
13 | MEVDEDIELQKHQEQQSRKLQRFSEDNTGLMRNWNNPSSRIIRVSRASGGKDRHSKVLTSKGLRDRRIRLSVATAIQFYDLQDRLGFDQPSKAVEWLINAASDSITDLPLLNTNFDHLDQNQNQTKSACSSGTSESSLLSLSRTEIRGKARERARERTAKDRDKDLQNAHSSFTQLLTGGFDQQPSNRNWTGGSDCFNPVQLQIPNSSSQEPMNHPFSFVPDYNFGISSSSSAINGGYSSRGTLQSNSQSLFLNNNNNITQRSSISSSSSSSSPMDSQSISFFMATPPPLDHHNHQLPETFDGRLYLYYGEGNRSSDDKAKERR | failed
14 | MKLVICAGPATTGKTAVLRHAIGKLIGRGFKPAFLKIDVQYAEEDEQFAREFAIPTRKTYSGDLCPDHCTVMVLGEALEWAGRQGADVLLVETAGLCLRCSPYVDGGLGVIVLEATSGMNLPLKVGPMLSLADVAVVTKIDRISQAEREVFRARIQDVAPGVRIREANALHGIGIDPLVDQIQATPDVDATLSLRGNPPVGTCTICVGKKEIGWKAHFGVVRSLENQTFYRGELEHHHHHH | failed
15 | MSLPQSKVLTSFGTANRTPRAAETHPLTWRLRDDGQPVWLEEYQTKQGYDAVRKALGQMSPDEIVSTVKDAGLKGRGGAGFPTGVKWGLMPKDESMNIRYLLCNADEMEPNTWKDRLLMEQLPHLLIEGMIISAKALKAYRGYIFLRGEYVDAAINLRRAVEEAKAAGLLGKNILGSGFDFELFVHTGAGRYICGEETALINSLEGRRANPRAKPPFPAVSGVWGKPTCVNNVETLCNVPAIIGNGVAWYHTLALPGSEDHGTKLMGFSGKVNNPGVWELPFGITARELFEGYAGGMRSGYRLKAWQPGGAGTGFLLPEHLDAQMYTAGIGKVGTRMGTGLAMAVDDSISMVSLLRNMEEFFARESCGWCTPCRDGLPWSVKLLRSLERGEGQEGDLATLEQLCNFLGPGKTFCAHAPGAVEPLASAIKYFRSEFEAGIKGSGDNRKSIKGIQPNLLGERWLEHHHHHH | not failed
